Consider 2 molecules from patent US20240358849A1 (SUZHOU FUSE BIOSCIENCES, published 2024).

Numbering of substitutions follows the chain as printed. Where only a bound is given, the exact number is not on record here.

Assay [1] deals with T1, human Fibroblast Activation Protein (FAP), soluble antigen (human, UniProt Q12884 26-760, biotinylated when immobilized on streptavidin sensors).
T1 construct: also called hFAP; biotinylated FAP
Description: BLI per 6.1.3, human FAP.
Description: (§1) Binding constants (kₒₙ, koff and KD) were determined after referencing by subtracting responses from sensors without immobilized antigen. Data were fit globally with Gator software using a 1:1 binding interaction while fitting the responses to an unlinked Rₘₐₓ. All protein samples were diluted in PBST-BSA. Typical protocol for KD determination:

Assay [2] addresses T1, human Fibroblast Activation Protein …. Nature of the assay: BLI per 6.1.3, human FAP. The source holds these as a separate data set.
Description: as §1
For assay [3] the target is unchanged. Description: BLI, FAP on streptavidin sensor, monovalent Fab-Fc fusion of D002. (In BLI a coated tip is dipped into the sample, and binding shifts an interference pattern.)
Description: Binding constants (kₒₙ, koff and KD) were determined after referencing by subtracting responses from sensors without immobilized antigen. Data were fit globally with Gator software using a 1:1 binding interaction while fitting the responses to an unlinked Rₘₐₓ. All protein samples were diluted in PBST-BSA.
For assay [4], the target named is T2, IL-2hex, mutant human IL-2 (deltaA1/T3A/F42A/Y45A/L72G/C125S) (human, UniProt P60568 22-153).
T2 chain: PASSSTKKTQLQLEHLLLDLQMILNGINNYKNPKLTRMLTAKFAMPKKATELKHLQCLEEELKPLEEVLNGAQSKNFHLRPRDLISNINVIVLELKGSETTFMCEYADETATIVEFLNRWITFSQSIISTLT
Description: not stated in the sentence (BLI value of FIG. 4B, there told for IL-2).

The target in assay [5] is T3, human interleukin-2 (IL-2), wild type (human, UniProt P60568 21-153, biotinylated when immobilized).
T3 construct: also called biotinylated IL-2; IL2 WT
Description: BLI, equilibrium binding analysis, biotinylated IL-2 on streptavidin sensor, monovalent Fab-Fc fusion of D002.
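Wherever kon is given: biolayer interferometry with immobilized antigen on sensors, antibody association up to 240 s then dissociation up to 420 s, reference-subtracted, global 1:1 fit with unlinked Rmax.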

T1 sequence (Q12884 26-760 limits assumed): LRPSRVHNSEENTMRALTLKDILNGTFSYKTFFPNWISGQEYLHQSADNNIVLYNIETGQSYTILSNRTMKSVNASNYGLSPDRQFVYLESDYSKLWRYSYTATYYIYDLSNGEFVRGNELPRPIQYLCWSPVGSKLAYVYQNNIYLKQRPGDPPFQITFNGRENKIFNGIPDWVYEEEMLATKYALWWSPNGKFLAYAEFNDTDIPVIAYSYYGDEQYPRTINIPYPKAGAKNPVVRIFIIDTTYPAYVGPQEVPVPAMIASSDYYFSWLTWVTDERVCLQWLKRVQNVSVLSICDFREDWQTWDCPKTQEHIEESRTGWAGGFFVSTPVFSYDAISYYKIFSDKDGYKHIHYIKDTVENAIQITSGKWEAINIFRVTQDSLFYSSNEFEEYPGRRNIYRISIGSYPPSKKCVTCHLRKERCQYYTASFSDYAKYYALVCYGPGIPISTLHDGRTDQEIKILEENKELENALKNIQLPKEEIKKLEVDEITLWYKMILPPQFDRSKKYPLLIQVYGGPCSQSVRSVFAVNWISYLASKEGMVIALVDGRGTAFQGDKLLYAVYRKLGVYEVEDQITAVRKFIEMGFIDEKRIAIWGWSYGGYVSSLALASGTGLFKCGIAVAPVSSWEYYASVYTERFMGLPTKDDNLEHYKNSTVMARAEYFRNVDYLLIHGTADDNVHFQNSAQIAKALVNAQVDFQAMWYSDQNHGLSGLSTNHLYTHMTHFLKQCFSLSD
T3 sequence (P60568 21-153): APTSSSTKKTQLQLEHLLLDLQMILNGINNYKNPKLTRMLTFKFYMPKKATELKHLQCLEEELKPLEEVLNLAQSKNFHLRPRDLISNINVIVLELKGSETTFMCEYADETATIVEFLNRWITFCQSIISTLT

B1: anti-FAP antibody 872-5V1 (antibody, V domains shown)
VH: EVQLVESGGGLVQPGGSLRLSCAASGFTFRGYIMSWVRQAPGKGLEWVSWIGPEGSRTGYADSVKGRFTISRDNSKNTLYLQMNSLRAEDTAVYYCARLLYGTWFDYWGQGTLVTVSS
VL: DIQMTQSPSSLSASVGDRVTITCRASQSISSYLNWYQQKPGKAPKLLIYAASSLQSGVPSRFSGSGSGTDFTLTISSLQPEDFATYYCQQGTLLLPTFGQGTKVEIKR
notes: KD by BLI per 6.1.3 (monovalent Fab-Fc)
B1: the “improvement of the affinity over parent 872-5 (fold)” value in assay [1] is greater than 80 fold. Moreover, in assay [2], the Kd was less than 0.1 nM and the kon came out at 625000 M⁻¹ s⁻¹.

B2: anti-IL-2/anti-FAP two-in-one antibody D002 (bispecific antibody, V domains shown)
VH: EVQLVESGGGLVQPGGSLRLSCAASGFTFSRYSMSWVRQAPGKGLEWVSDISSYSTTYYADSVKGRFTISRDNSKNTLYLQMNSLRAEDTAVYYCARSQYGRYYSPDYYFDYWGQGTLVTVSS
VL: B1 VL with S30G, S31N, Y32S, T92R, L93R, L94S, L95P, P96F
Regarding B2, the Kd in assay [3] is roughly 50 nM; in assay [4], roughly 3.4 µM; in assay [5], 3.4 µM.

One may read the Kd as the constant that tells how readily two partners part at equilibrium. A lower Kd goes with a tighter complex. By kon is commonly meant a measure of how fast the partners come together.
